Measured values reported in paper PMC6941992, “Polar recruitment of RLD by LAZY1-like protein during gravity signaling in root branch angle control” (Nature Communications, 2020).

Biological target: T1, RLD2 BRX domain (residues 1006-1066) (Arabidopsis thaliana, UniProt F4K0X5 1006-1066)
T1 construct: HRV3C cleavage may leave vector residues at the N-terminus (surmised); source: E. coli BL21Star (DE3), purified (His-tag resin, HRV3C cleavage, gel filtration); for crystals co-expressed with LZY3 (274-287); not shown: His6, N-terminal, cleaved
T1 sequence (looked up): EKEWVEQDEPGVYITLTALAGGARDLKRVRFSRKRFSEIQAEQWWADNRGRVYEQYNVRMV
Assay: ITC; iTC200, 20 °C; 20 mM Tris-HCl pH 8.0, 150 mM NaCl; 200 μM LZY3 (274-287) injected into 20 μM RLD2 BRX domain; 1:1 binding model
Conditions: both partners purified

B1: LZY3 CCL peptide (residues 274-287) (peptide, UniProt Q5XVG3 274-287, looked up)
chain: KWVKTDSDFIVLEI
notes: LZY3 (LAZY1-LIKE 3), Arabidopsis thaliana, residues 274-287 (CCL domain); HRV3C cleavage may leave vector residues at the N-terminus (surmised); also called CCL β-hairpin; source: E. coli BL21Star (DE3), purified (glutathione sepharose, HRV3C cleavage, gel filtration, reverse phase); for crystals co-expressed with RLD2; not shown: GST, N-terminal, cleaved
Kd: 9.7 ± 2.2 nM | dH: -11.3 ± 0.09 kcal/mol | stoichiometry N: 0.73 ± 0.002
